The record followed here is patent US20080206220A1, “2031 Oxidoreductase” (F2G LTD, priority 2004, published 2008).

One data set relates to O=C1C=CCCC1. Description: purified protein, by the assay type. To be noted: other: recombinant 2031 OR, 100 mM potassium phosphate buffer pH7.0; pH 7.0.
A further data set relates to Recombinant 2031 OR. Nature of the data set: Oxidoreductase assay: NADPH oxidation monitored at 340 nm, 96-well. The class given is biochemical, Aspergillus fumigatus. To be noted: 500 μM substrate, 1 μg/200 μL 2031 OR, 120 μM NADPH. Here is the method: The assay for 2031 OR is based on methods described by Abramovitz & Massey (1976, J. Biol. Chem. 251: 5321-5326) and Stott et al. (1993, J. Biol. Chem. 268: 6097-6106) and is based upon the ability of this enzyme to oxidise the pyridine nucleotides NADH and/or NADPH. […] Conversion of NAD(P)H to NAD(P)^+ can therefore be monitored spectrophotometrically at a wavelength of 340 nm. A similar assay can be employed for all oxidoreductases that use NADH or NADPH as a cofactor.
Assays were carried out in 96-well plates. To each well was added the following; Recombinant 2031 OR (10-1000 ng); 40 μl of 125-2500 μM NADPH; 1 μL 100 mM cyclohexeneone or other substrate, and the volume made up to 200 μL with 0.1 M potassium phosphate pH 7.0. Samples were incubated at room temperature and absorbance measurements were taken at 340 nm every 30 seconds for 10 min. The change in absorbance was expressed as nmoles NADPH oxidised, using the molar extinction coefficient of NADPH and NADH at 340 nm of 6270 (i.e., a 1M solution has an optical density of 6270 at this wavelength).
This is illustrated in FIG. 5. Final concentrations in the assay were as follows: 500 μM substrate, 1 μg/200 μL 2031 OR, 120 μM NADPH.

Method for O=C1C=CCCC1: Assay plates: Compounds to be tested were dissolved in 100% DMSO (polypropylene vessels), diluted in water and loaded into 384 square well polystyrene plates (10 μl/well). The final DMSO concentration in all assay wells was 5% v/v.
βNADPH (tetrasodium salt)/2-cyclohexen-1-one reagent; Solutions of NADPH (1.2917 mM in 100 mM potassium phosphate buffer, pH7.0) and 2-cyclohexen-1-one (10 mM in 100 mM potassium phosphate buffer, pH7.0) were prepared on the day of the assay and combined in a ratio of 1 part of 2-cyclohexen-1-one solution to 9 parts NADPH solution. Final assay well concentrations for NADPH and 2-cyclohexen-1-one were 465 μM and 400 μM respectively.
For the iscreen, protein was typically diluted to 5 to 11.25 μg/ml in 100 mM potassium phosphate buffer, pH7.0.
Stop reagent: 0.4 M NaOH in water.
To give an increased signal, the screen was carried out using 2-cyclohexen-1-one at 4 times Km. […]
Assays were carried out using Tecan Freedom, Tecan TeMo and PerkinElmer Minitrak robots together with a ThermoLabsystems multidrop 384 and a Tecan Safire automated plate reader. […] Plates were read at 340 nm on a Tecan Safire plate reader and data processed using ‘in-house’ created Excel spreadsheets to convert raw data into percent inhibition data. […]

On to “2031 OR enzyme (Aspergillus fumigatus Af293)”, for which the Km – broadly, the concentration of substrate that gives half-maximal velocity – in the data set with O=C1C=CCCC1 was 100 µM.

Turning to `O=C1C=CCCC1` [2-cyclohexen-1-one], the “Reduction of substrates by recombinant 2031 OR (substrate comparison, FIG. 5)” value in the data set with Recombinant 2031 OR is given as “better substrate than menadione, duroquinone or N-ethylmaleimide”.
